Assay [1] addresses T1, CTLA-4 (antigen of the affinity measurement of Table 1) (UniProt P16410 36-161, limits assumed).
T1 construct: Antigen form and method of the KD measurement are not described
T1 sequence (looked up): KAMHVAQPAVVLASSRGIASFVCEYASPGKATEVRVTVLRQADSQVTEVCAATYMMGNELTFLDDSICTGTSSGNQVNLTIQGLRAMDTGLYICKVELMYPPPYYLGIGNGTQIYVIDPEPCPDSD
Description: affinity, method not stated.

In assay [2] the target is T2, His-hCTLA-4 (polyhistidine-tagged CTLA-4) (human, UniProt P16410 36-161).
T2 construct: Coated on ELISA plates at 0.5 ug/ml; not shown: polyhistidine tag
T2 sequence (looked up): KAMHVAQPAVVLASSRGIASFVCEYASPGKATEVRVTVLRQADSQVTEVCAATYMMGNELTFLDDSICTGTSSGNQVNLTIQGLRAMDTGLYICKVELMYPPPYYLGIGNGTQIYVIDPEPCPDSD
Kind of assay: ELISA, plate-coated His-hCTLA-4, antibody 1 ug/ml, pH 5.5 against pH 7.0. How it is done: FIG. 1A-B. pH-sensitivity of TremeIgG1 and its variants. His-hCTLA-4 (0.5 μg/ml) was coated in ELISA plates and different anti-CTLA-4 mAbs were added at 1 μg/ml in the buffer over a pH range of 4.5 to 7.0. pH indicated represents binding and washing conditions. Antibodies bound to CTLA-4 were measured using horse-radish perioxidase-labeled anti-human IgG antibodies.
In order to validate the approach, the activity of the Tremelimumab mutant antibodies was evaluated. To determine if the introduction of histidine to the CDR regions affects the pH sensitivity of the antibodies, the antibody binding to its antigen, polyhistidine-tagged CTLA-4, was measured over a pH range. As a control, HL12, which is known to bind CTLA-4 in a pH-dependent manner, with reduced binding at low/acidic pH, was used.
On the technique in general: An ELISA detects its analyte on a solid surface through an enzyme-linked reagent.

Assay [3] concerns the target His-hCTLA-4 (polyhistidine-tagged CTLA-4) (human) (UniProt P16410). Described as above.

Where only a bound is given, the exact number is not on record here.

B1: AB139 (TremeIgG1) (antibody, V domains shown)
VH: QVQLVESGGGVVQPGRSLRLSCAASGFTFSSYGMHWVRQAPGKGLEWVAVIWYDGSNKYYADSVKGRFTISRDNSKNTLYLQMNSLRAEDTAVYYCARDPRGATLYYYYYGMDVWGQGTTVTVSS
VL: DIQMTQSPSSLSASVGDRVTITCRASQSINSYLDWYQQKPGKAPKLLIYAASSLQSGVPSRFSGSGSGTDFTLTISSLQPEDFATYYCQQYYSTPFTFGPGTKVEIKR
notes: Tremelimumab variable regions; also called mAb139; WT TremeIgG1
Usually Kd stands for the free concentration of one partner at which half of the binding sites on the other are occupied at equilibrium, for simple one-to-one binding. The low end stands for tighter binding, the high end for weaker binding. In assay [1], B1 displayed a dissociation constant (Kd) of 0.147 nM. In other words, the sub-nanomolar range.

B2: AB158 (antibody, IgG1, V domains shown)
VH: QVQLVESGGGVVQPGRSLRLSCAASGFTFSSYGMHWVRQAPGKGLEWVAVIWYDGSNKYYADSVKGRFTISRDNSKNTLYLQMNSLRAEDTAVYYCARDPRGATLYHYYYGMDVWGQGTTVTVSS
VL: DIQMTQSPSSLSASVGDRVTITCRASQSINSYLDWYQQKPGKAPKLLIYAASSLQSGVPSRFSGSGSGTDFTLTISSLQPEDFATYYCQQYYSTPFTFGPGTKVEIKR
notes: TremeIgG1 mutant, IgG1; also called TremeIgG1M
With B2, the Kd in assay [1] was 0.542 nM. Besides, in assay [2], the “binding at pH 5.5 relative to neutral pH (pH 7.0)” value was not below 75%.

B3: AB154 (antibody, V domains shown)
VH: QVQLVESGGGVVQPGRSLRLSCAASGFTFSHHGMHHVRQAPGKGLEWVAVIWYDGSNKYYADSVKGRFTISRDNSKNTLYLQMNSLRAEDTAVYYCARDPRGATLYYYYYGMDVWGQGTTVTVSS
VL: DIQMTQSPSSLSASVGDRVTITCRASQSINSYLDWYQQKPGKAPKLLIYAASSLQSGVPSRFSGSGSGTDFTLTISSLQPEDFATYYCQQYYSTPFTFGPGTKVEIKR
notes: TremeIgG1 mutant, IgG1; also called mAb154; TremeIgG1M
For B3, in assay [1], the dissociation constant (Kd) is 1.23 nM.

B4: AB156 (antibody, IgG1, V domains shown)
VH: QVQLVESGGGVVQPGRSLRLSCAASGFTFSSYGMHWVRQAPGKGLEWVAVIWYDGSNKYYADSVKGRFTISRDNSKNTLYLQMNSLRAEDTAVYYCARDPRGATLHHHYYGMDVWGQGTTVTVSS
VL: DIQMTQSPSSLSASVGDRVTITCRASQSINSYLDWYQQKPGKAPKLLIYAASSLQSGVPSRFSGSGSGTDFTLTISSLQPEDFATYYCQQYYSTPFTFGPGTKVEIKR
notes: TremeIgG1 mutant, IgG1; also called Mab156; TremeIgG1M
In assay [1], B4 came in with a Kd of 4.46 nM. Moreover, the “binding at pH 5.5 relative to neutral pH (pH 7.0)” value in assay [2] was not above 50%.

B5: AB159 (antibody, IgG1, V domains shown)
VH: QVQLVESGGGVVQPGRSLRLSCAASGFTFSSYGMHWVRQAPGKGLEWVAVIWYDGSNKHHADSVKGRFTISRDNSKNTLYLQMNSLRAEDTAVYYCARDPRGATLYYYYYGMDVWGQGTTVTVSS
VL: DIQMTQSPSSLSASVGDRVTITCRASQSINSYLDWYQQKPGKAPKLLIYAASSLQSGVPSRFSGSGSGTDFTLTISSLQPEDFATYYCQQYYSTPFTFGPGTKVEIKR
notes: as for B2
In assay [1], B5 returned a Kd of 0.387 nM. The “binding at pH 5.5 relative to neutral pH (pH 7.0)” value in assay [2] was not below 75%.

B6: AB157 (antibody, IgG1, V domains shown)
VH: QVQLVESGGGVVQPGRSLRLSCAASGFTFSSYGMHWVRQAPGKGLEWVAVIWYDGSNKYYADSVKGRFTISRDNSKNTLYLQMNSLRAEDTAVYYCARDPRGATLYHHYYGMDVWGQGTTVTVSS
VL: DIQMTQSPSSLSASVGDRVTITCRASQSINSYLDWYQQKPGKAPKLLIYAASSLQSGVPSRFSGSGSGTDFTLTISSLQPEDFATYYCQQYYSTPFTFGPGTKVEIKR
notes: as for B2
The molecule B6 showed a Kd in assay [1] of 2.32 nM. Moreover, in assay [2], the “binding at pH 5.5 relative to neutral pH (pH 7.0)” value was not above 50%.

B7: HL12 (antibody, from another filing, V domains shown)
VH: QVQLQESGPGLVKPSETLSLTCTVSGFSLTSYGLSWIRQPPGKGLEWIGYIWYDGNTNFHPSLKSRVTISKDTSKNQFSLKLSSVTAADTAVYYCAKTEGHYYGSNYGYYALDYWGQGTSVTVSS
VL: DIQMTQSPSSLSASVGDRVTITCRASENIYSNLAWYQQKQGKAPKLLLYAATNLQDGVPSRFSGSGSGTDYTLTISSLQPEDFATYFCQHLWGTPYTFGQGTKLEIK
Consider B7, for which the binding at pH 5.5 relative to neutral pH (pH 7.0) in assay [3] was less than 50%.
